This is an account of results in US20180237497A1 (CANCER RESEARCH TECHNOLOGY, published 2018).

Where a chain is given by its changes, count along the chain named. Names and notes keep the numbering of the source.

Test [1] has as its target T1, human IGF2^1-67 (mature insulin-like growth factor 2) (human, UniProt P01344 25-91, biotinylated (site not stated) where immobilised on the chip (Tables 1-4)).
T1 construct: mature; also called mature IGF2; biotinylated IGF2
Nature of the test: SPR steady state, biotin-IGF2 on chip. As for the experimental part: (§1) Final kinetic analysis of mutants by SPR was conducted using a Biacore T200 biosensor at 25° C. in either HBS-EP (10 mM HEPES pH 7.4, 150 mM NaCl, 3 mM EDTA, and 0.005% (v/v) surfactant P20) or MES-EP (20 mM MES pH 6.5, 150 mM NaCl, 3 mM EDTA, and 0.005% (v/v) surfactant P20) at a flow-rate of 40 μL min⁻¹. […] For the analysis of the Fc-domain 11^AB5 interaction, approximately 50 RU of a biotinylated IGF2:biotinylated ubiquitin mixture (1:8 proportion) was immobilized on the CM5-streptavidin chip. This interaction was also analysed by immobilizing the Fc-domain 11^AB5 and Fc-domain 11^AB5-RHH (or Fc-domain 11^I1572A as control) by Human Antibody Capture (monoclonal mouse anti-human IgG antibody immobilised on a CM5 chip by amine coupling, GE Healthcare) with and without human IgG1 Fc fragment (Bethyl Laboratories, UK) in the control flow cell. […] T200 BiaEvaluation software (GE Healthcare) was used to fit the resulting curves according to a 1:1 binding model. Steady state affinities were determined using the kinetic data, taking the response average at 5 seconds before injection end and for 5 seconds average. Thermodynamic data was performed across the temperature range of 10° C. to 30° C., van't Hoff and Erying plots generated and ΔH, −TΔS and ΔG values determined as previously described.

The target of test [2] is T1, human IGF2^1-67 (mature insulin-like …). The experiment in a line: SPR steady state, biotin-IGF2 on chip, pH 7.4. An outline of the steps: (§2)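 Biotinylated IGF2 captured on streptavidin chip; recombinant M6P/IGF2R domain 11 mutants (E. coli or P. pastoris) injected at 25° C in HBS-EP, pH 7.4, 40 μL min⁻¹. Kinetics fitted to 1:1 model; steady-state KD from 5 s response averages before injection end; 2-5 repeats on two chips.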

For test [3] the target is unchanged. Nature of the test: SPR kinetic, biotin-IGF2 on chip. The procedure:
as §1
In general terms: In SPR one partner is held on a chip, and binding of the other changes the refractive index at the surface.

For test [4] the target is unchanged. Nature of the test: SPR kinetic, biotin-IGF2 on chip, pH 6.5. The procedure:
Measurements were carried out at 25° C. in MES-EP buffer, 20 mM MES pH 6.5, 150 mM NaCl, 3 mM EDTA, and 0.005% (v/v) surfactant P20). Data for KD expressed as mean of each experiment, and means of kon and koff are shown.
as §1

Test [5] shares this target. The experiment in a line: SPR kinetic, biotin-IGF2 on chip, pH 7.4. Summed up:
as §2

Test [6] shares this target. The experiment in a line: SPR kinetic, biotin-IGF2 on chip, pH 7.4. The procedure: as §1
This is another data set of the same source.

The target is the same in test [7]. The experiment in a line: SPR steady state, biotin-IGF2 on chip, pH 7.4. As for the experimental part: as §1
This is another data set of the same source.

Test [8] has the same target. Nature of the test: SPR (Biacore T200, 25 °C, HBS-EP pH 7.4); ΔΔG° = RT ln(KD mutant / KD domain 11^AB3); box AB+FG. As for the experimental part: Boxes show the change in the binding free energy contribution, ΔΔGº, for the indicated mutants. The loop/s that contains the mutation/s is indicated in each box. The ΔΔGº values were calculated as ΔΔGº=ΔGº domain 11^mutant−ΔGº domain 11^AB3=RTln(KD domain 11^mutant/KD domain 11^AB3). Additive and non-additive contributions of single point mutations are shown when calculated with a box solid line and dashed line, respectively.
as §1, with “average.” for “average. Thermodynamic data was performed across the temperature range of 10° C. to 30° C., van't Hoff and Erying plots generated and ΔH, −TΔS and ΔG values determined as previously described.”

For test [9] the target is unchanged. The experiment in a line: SPR.
Text: Surface plasmon resonance (SPR) binding analysis of recombinant M6P/IGF2R domain 11 mutants interaction with IGF2. Kon indicates association (on) rate; koff, dissociation (off) rate; RU, response units. Binding to IGF2 assessed with BIAcore T200 using purified biotinylated IGF2 and IGF1 on a streptavidin biosensor chip. Recombinant proteins were expressed either in E. coli and/or P. pastoris. All the mutants in the FG and CD loops are on the domain 11^AB5 background for the AB loop unless otherwise stated. All experiments were carried out at 25° C. in HBS-EP buffer (pH 7.4), were repeated 2-5 times on two independent BIAcore chips. nd=not determined. Data for KD expressed as mean of each experiment, and means of kon and koff are shown.
as §1, with “model.” for “model. Steady state affinities were determined using the kinetic data, taking the response average at 5 seconds before injection end and for 5 seconds average. Thermodynamic data was performed across the temperature range of 10° C. to 30° C., van't Hoff and Erying plots generated and ΔH, −TΔS and ΔG values determined as previously described.”

Test [10] shares this target. Nature of the test: SPR kinetic, Fc fusion captured by anti-human IgG, pH 7.4. The procedure: (§3) SPR analysis of the interaction of recombinant IGF1 and IGF2 forms with Fc-domain 11 proteins immobilised by antibody capture (CM5 chip containing monoclonal mouse anti-human IgG antibody immobilised by amine coupling). Measurements were carried out at 25° C. in HBS-EP buffer (pH 7.4).
as §1

Test [11] has as its target T2, pro-IGF2^1-156 (UniProt P01344 25-180).
T2 construct: range 1-156
Described as above. The procedure: as §3, §1

For test [12], the target named is pro-IGF2^1-104 (UniProt P01344 25-128). Described as above. As for the experimental part:
as §3, §1

Sequence of pro-IGF2^1-104 (P01344 25-128 limits assumed): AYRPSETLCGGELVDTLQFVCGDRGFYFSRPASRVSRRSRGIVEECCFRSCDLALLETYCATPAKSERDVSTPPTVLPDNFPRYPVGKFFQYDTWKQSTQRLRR
T1 sequence (P01344 25-91): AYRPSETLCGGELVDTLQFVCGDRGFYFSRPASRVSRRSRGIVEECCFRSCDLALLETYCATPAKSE
T2 sequence (P01344 25-180 limits assumed): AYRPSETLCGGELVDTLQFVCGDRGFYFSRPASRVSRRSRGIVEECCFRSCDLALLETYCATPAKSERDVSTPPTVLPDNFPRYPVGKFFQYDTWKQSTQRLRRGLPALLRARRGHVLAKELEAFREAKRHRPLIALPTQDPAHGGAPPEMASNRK

B1: IGF2R domain 11^WT (receptor)
chain: MKSNEHDDCQVTNPSTGHLFDLSSLSGRAGFTAAYSEKGLVYMSICGENENCPPGVGACFGQTRISVGKANKRLRYVDQVLQLVYKDGSPCPSKSGLSYKSVISFVCRPEAGPTNRPMLISLDKQTCTLFFSWHTPLACEQATECSV
notes: Soluble His6-tagged domain 11 from P. pastoris and/or E. coli; also called wild-type domain 11
As for B1, the Kd (usually the concentration at which binding is half-saturated) in test [1] stood at 64 nM; in [2], 64 nM; in test [3], 46 nM; in test [4], 35.1 nM; in test [5], 46 nM. Also, the values for the koff in test [3], in test [4] and in test [5] were 0.23 s⁻¹, 0.144 s⁻¹ and 0.23 s⁻¹, respectively. For the same molecule, the kon (commonly a measure of how fast the partners come together) in [3] came out at 5e+06 M⁻¹ s⁻¹; in [4] it was 2.68e+06 M⁻¹ s⁻¹; in test [5], 5e+06 M⁻¹ s⁻¹.

B2: domain 11^AB5 P1597H (receptor)
chain: B1 chain with S36A, E37K, K38G, G39W, L40G, P90H
notes: See m5
For the molecule B2, in test [6], the Kd was 1.9 nM; the koff (as a rule, a measure of how fast the partners let go of each other) came out at 0.007 s⁻¹; the kon was 3.68e+06 M⁻¹ s⁻¹. Also, binding in test [7] was put at a Kd of 2.79 nM. This molecule also yielded a ΔΔG in [8] of -1.23 kcal/mol.

B3: domain 11^AB3 P1597H (receptor)
chain: B1 chain with E37K, K38S, L40V, P90H
notes: See m5; also called AB3 + 62B (FG-P1597H)
As for B3, in [1], binding was characterised by a dissociation constant (Kd) of 1.76 nM. In test [6], this molecule had a Kd of 1.23 nM, a koff of 0.013 s⁻¹ and a kon of 1.06e+07 M⁻¹ s⁻¹. Further, in [9], the “fold change of KD against domain 11^AB3” value was found to be 10 fold and the “fold reduction of koff against domain 11^AB3” value was determined as 4 fold. Besides, in [3], binding was characterised by a dissociation constant (Kd) of 1.23 nM, the koff was 0.013 s⁻¹ and the kon amounted to 1.06e+07 M⁻¹ s⁻¹. This molecule had a Kd in [7] of 1.76 nM. Also, the ΔΔG in [8] was -1.49 kcal/mol.

B4: domain 11^AB5 G1603K (receptor)
chain: B1 chain with S36A, E37K, K38G, G39W, L40G, G96K
notes: See m5
For the molecule B4, the affinity in test [2], expressed as Kd, was 4.54 nM. Further, in test [9], the “fold improvement of affinity” value is no more than 2 fold. In test [5], the Kd came out at 2.73 nM, the koff amounted to 0.0121 s⁻¹ and the kon worked out at 4.66e+06 M⁻¹ s⁻¹. This molecule also came in with a ΔΔG in test [8] of -1.02 kcal/mol.

B5: domain 11^AB5 S1602H (receptor)
chain: B1 chain with S36A, E37K, K38G, G39W, L40G, S95H
notes: See m5
In test [2], B5 displayed a Kd of 5.44 nM. Besides, in test [9], the “fold improvement of affinity” value is no more than 2 fold. In test [5], the Kd is 3.19 nM, the koff was 0.0112 s⁻¹ and the kon stood at 3.61e+06 M⁻¹ s⁻¹. The ΔΔG in test [8] was -0.93 kcal/mol.

B6: IGF2R domain 11^AB3 (receptor)
chain: B1 chain with E37K, K38S, L40V
notes: His6-tagged soluble domain 11; also called domain 11^E1544K, K1545S, L1547V; 1542YSKSGV1547
B6: the Kd in test [1] was found to be 15.5 nM; in test [6], 15.3 nM; in test [2] it was 15.5 nM; in test [3], 15.3 nM; in [4] it was 11.8 nM; in [7], 15.5 nM. Also, the Kd in test [5] was 15.3 nM. Moreover, the koff was 0.044 s⁻¹ in [6], 0.044 s⁻¹ in [3], 0.0381 s⁻¹ in [4] and 0.044 s⁻¹ in test [5]. Moreover, the kon in test [6] was 2.76e+06 M⁻¹ s⁻¹; in test [3], 2.76e+06 M⁻¹ s⁻¹; in [4] it was 3.43e+06 M⁻¹ s⁻¹; in [5] it was 2.76e+06 M⁻¹ s⁻¹.

B7: Fc-domain 11^AB5-RHH (IGF2-TRAP) (Fc fusion, not shown: a dimerising Fc or GST)
chain: NEHDDCQVTNPSTGHLFDLSSLSGRAGFTAAYAKGWGVYMSICGENENCPPGVGACFGRTRISVGKANKRLRYVDQVLQLVYKDGSHCPSKHGLSYKSVISFVCRPEAGPTNRPMLISLDKQTCTLFFSWHTPLACEQAT
notes: RHH is not defined in words; read as Q1569R P1597H S1602H on AB5; IgG2 Fc is stated for the CHO product; also called IgG2 Fc-domain 11^AB5-RHH; Fc-domain 11^RHH
Consider B7, for which, in test [10], the Kd stood at 0.54 nM, the off-rate (koff) came to 0.0014 s⁻¹ and the kon came to 2.6e+06 M⁻¹ s⁻¹. Moreover, in test [11], binding was put at a Kd of 1.13 nM, the koff worked out at 0.0003 s⁻¹ and the kon was 230000 M⁻¹ s⁻¹. Moreover, in test [12], the Kd turned out to be 0.39 nM, the off-rate (koff) was 0.0005 s⁻¹ and the kon came out at 1.29e+06 M⁻¹ s⁻¹.

B8: Fc-domain 11^I1572A fusion protein (Fc fusion)
chain: B7 chain with A33S, K34E, G35K, W36G, G37L, R59Q, I62A, H87P, H92S
notes: not shown: human IgG Fc
In test [11], B8 showed a Kd of 2.71 nM, a koff of 0.0008 s⁻¹ and a kon of 290000 M⁻¹ s⁻¹. In [12], this molecule gave a Kd of 4.41 nM, a koff of 0.002 s⁻¹ and a kon of 520000 M⁻¹ s⁻¹.
